B1: TPR t1 (parent)
chain: GACCAAUCUGCCCUCAGAGCUCGAGAACAUCUUCGGAUGCAGAGGAGGCAGGCUUCGGUGGCGCGAUAGCGCCAACGUCCUCAACCUCCAAUGCAUCCCACCACAUGAUGAUGCCUGAAGAGCCUUGGUUUUUUG

Variants of: B1
Test: polymerase ribozyme fitness, log enrichment relative to wild type (log ratio); higher = more active; in vitro selection for triplet polymerase activity
Outline: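 Each subunit of a heterodimeric triplet polymerase ribozyme was represented by a PCR-built, transcribed mutant library that underwent triplicate single-round in vitro selection with frozen incubation at −7 °C. Extended constructs were recovered by gel excision, streptavidin-bead capture and RT-PCR, and Illumina sequencing of input and output libraries kept genotypes with ≥10 input reads and ≥1 read per output. Fitness is the logarithm of genotype enrichment relative to wild-type enrichment, from inverse-variance-weighted replicate averages, with a logarithm base of 2.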

Row | Variant | polymerase ribozyme fitness (log ratio)
1 | C28A G110C A119U | -1.42
2 | A26G C80U G120U | -3.13
3 | A26G C34U C85U C124G | -2.34
4 | A26U C56G | -3.48
5 | A27U G60A | -3.35
6 | A27G A46U C102U C115A G120A | -7.01
7 | A24G G51U G69A G113C G120U | -6.67
8 | G25U A26G | -3.22
9 | A27G G52A C79U | -2.15
10 | A27U C97U U130C | -3.37
11 | C28G G63A C73U | -3.78
12 | A24G U112G | -1.29
13 | C28G G117A | -4.12
14 | A26U G35U C53U U112C C114U G117A | -7.18
15 | A26G A105G | -4.04
16 | C28G C31U G58A G63A G117C | -6.83
17 | A26G C114U | -3.27
18 | C28A C62A | -5.73
19 | A27U G36C | -3.53
20 | A24U G39U G60U C115A U129C | -6.65
21 | C28G C40U C86A | -3.65

Row | Variant | polymerase ribozyme fitness (log ratio)
22 | C28U A74U | -2.33
23 | A24G G61U C86G | -3.34
24 | A27U C56G | -4.07
25 | A26C G117U A119U | -7.54
26 | A27G U78C | -2.35
27 | A24G G60A C80U C88A | -4.67
28 | A27G G128C | -4.95
29 | A27C C49G | -4.07
30 | A27C G39A G61A C94A U112G | -4.85
31 | A26G U133G | -2.68
32 | A27G A50U G61A A83G U126G G128C | -5.38
33 | C28A G110A | -0.364
34 | A27U U87C | -2.89
35 | A26U G48U | -3.85
36 | A27U C70U G122A | -3.96
37 | A27U G71U C94A | -4.88
38 | A27U C72G U78A | -3.94
39 | A27U A29C G35C A68U U109G A119G G127A | -6.64
40 | A24G G52A A66U C73U A91G | -4.6
41 | A26G C28G | -2.83
42 | A26G U78C U106A G113U C115A | -5.3

Row | Variant | polymerase ribozyme fitness (log ratio)
43 | A27C G48A C86G U92A A103G A105C U109G | -7.14
44 | A24U G61U | -6.34
45 | A26G A50G C56G A74G C82G | -4.41
46 | A27C C89U | -4.35
47 | A26U C53U | -3.26
48 | C28A G60A G110U G122A | -0.649
49 | C28G U96A C97G G117C | -8.14
50 | C28U C49U | -3.27
51 | A26U G122A G127U U133G | -4.8
52 | A24U G69U C114G | -7.51
53 | C28G A83G | -3.41
54 | C28A A50C C82U C115A | -4.58
55 | G25C C53A | -6.51
56 | A26G G71A C88G G120C | -2.52
57 | A26U A37C G77A C124G | -1.36
58 | C28G C73U A119G | -1.62
59 | A27U C89U | -2.8
60 | A27G U59C A68G C99U U112A | -5.37
61 | G25C A29G C64A C79G A90C G117U A119G | -7.04
62 | A27U C94G | -5.02
63 | A27C G44C C73G | -5.57

Row | Variant | polymerase ribozyme fitness (log ratio)
64 | C28A U30G A43G G110C | -6.92
65 | G25C A46G C70U C85G | -6.39
66 | A26U C80U | -4.31
67 | A26G C28U A121G | -0.559
68 | A26U C82G C115U | -5.9
69 | A27G A37G G57C U96G C115A | -5.8
70 | A26U G71A C82U | -4.08
71 | C28G G69U A91G U116G | -5.08
72 | A27G U54C C80U A84U | -2.61
73 | G25A C73A | -6.13
74 | A27U C28U | -2.59
75 | A27U U78C | -2.98
76 | A27G G60U | -1.6
77 | A27G G60C | -2.15
78 | A26G C89U | -2.94
79 | A26G C89G | -3.55
80 | C28G C70A | -4.55
81 | A24U G61U A91G G120U C124U G135A | -6.15
82 | A26G G45C A95G C98G | -7.76
83 | A26U C40U C64U | -3.97

Source: the RNAGym collection of RNA variant scans (doi:10.1073/pnas.2313332121)
